Laboratory results: patent publication US20170158755A1 (PROTHENA BIOSCIENCES, published 2017)
One block for each binder: values may come before it.

Columns and labels:
human His-laminin-α4 = molecular target: T1, human His-laminin-α4 (human, UniProt Q16363 833-1823, limits assumed); assay: Biacore SPR
T1 construct: Bought His-tagged recombinant protein (R & D Systems); also called Human LAMA4; human His-laminin-α4 (R & D Systems)
T1 sequence: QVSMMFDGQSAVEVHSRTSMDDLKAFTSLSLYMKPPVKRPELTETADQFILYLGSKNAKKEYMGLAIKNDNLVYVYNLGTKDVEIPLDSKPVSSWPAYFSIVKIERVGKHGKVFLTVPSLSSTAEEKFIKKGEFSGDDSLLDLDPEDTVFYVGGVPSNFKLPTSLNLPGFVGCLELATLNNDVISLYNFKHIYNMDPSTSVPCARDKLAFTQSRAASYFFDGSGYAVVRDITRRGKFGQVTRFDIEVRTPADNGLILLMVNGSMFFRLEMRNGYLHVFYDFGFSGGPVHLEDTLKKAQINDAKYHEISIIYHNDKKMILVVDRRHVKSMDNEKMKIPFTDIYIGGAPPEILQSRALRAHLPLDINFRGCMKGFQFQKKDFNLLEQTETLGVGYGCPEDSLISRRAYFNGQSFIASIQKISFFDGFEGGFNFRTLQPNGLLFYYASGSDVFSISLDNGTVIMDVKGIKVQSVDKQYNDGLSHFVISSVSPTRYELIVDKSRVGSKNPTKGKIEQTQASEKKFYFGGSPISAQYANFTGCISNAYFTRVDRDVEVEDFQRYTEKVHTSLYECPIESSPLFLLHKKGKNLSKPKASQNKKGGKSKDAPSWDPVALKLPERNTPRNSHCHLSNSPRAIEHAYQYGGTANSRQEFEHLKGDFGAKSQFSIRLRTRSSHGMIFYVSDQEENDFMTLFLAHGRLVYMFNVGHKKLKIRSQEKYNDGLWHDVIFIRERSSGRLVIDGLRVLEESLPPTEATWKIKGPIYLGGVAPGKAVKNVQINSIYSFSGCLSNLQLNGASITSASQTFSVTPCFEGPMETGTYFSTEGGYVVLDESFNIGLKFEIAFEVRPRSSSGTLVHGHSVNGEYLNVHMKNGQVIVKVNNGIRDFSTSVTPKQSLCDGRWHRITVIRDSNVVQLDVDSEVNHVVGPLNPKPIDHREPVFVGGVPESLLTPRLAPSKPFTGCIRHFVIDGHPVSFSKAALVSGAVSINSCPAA

mouse His-laminin-α4 [1] = molecular target: T2, mouse His-laminin-α4 (mouse, UniProt P97927 826-1816, limits assumed); assay: Biacore SPR
T2 construct: Bought His-tagged recombinant protein; also called Murine LAMA4; recombinant mouse LAMA4-His
T2 sequence (looked up): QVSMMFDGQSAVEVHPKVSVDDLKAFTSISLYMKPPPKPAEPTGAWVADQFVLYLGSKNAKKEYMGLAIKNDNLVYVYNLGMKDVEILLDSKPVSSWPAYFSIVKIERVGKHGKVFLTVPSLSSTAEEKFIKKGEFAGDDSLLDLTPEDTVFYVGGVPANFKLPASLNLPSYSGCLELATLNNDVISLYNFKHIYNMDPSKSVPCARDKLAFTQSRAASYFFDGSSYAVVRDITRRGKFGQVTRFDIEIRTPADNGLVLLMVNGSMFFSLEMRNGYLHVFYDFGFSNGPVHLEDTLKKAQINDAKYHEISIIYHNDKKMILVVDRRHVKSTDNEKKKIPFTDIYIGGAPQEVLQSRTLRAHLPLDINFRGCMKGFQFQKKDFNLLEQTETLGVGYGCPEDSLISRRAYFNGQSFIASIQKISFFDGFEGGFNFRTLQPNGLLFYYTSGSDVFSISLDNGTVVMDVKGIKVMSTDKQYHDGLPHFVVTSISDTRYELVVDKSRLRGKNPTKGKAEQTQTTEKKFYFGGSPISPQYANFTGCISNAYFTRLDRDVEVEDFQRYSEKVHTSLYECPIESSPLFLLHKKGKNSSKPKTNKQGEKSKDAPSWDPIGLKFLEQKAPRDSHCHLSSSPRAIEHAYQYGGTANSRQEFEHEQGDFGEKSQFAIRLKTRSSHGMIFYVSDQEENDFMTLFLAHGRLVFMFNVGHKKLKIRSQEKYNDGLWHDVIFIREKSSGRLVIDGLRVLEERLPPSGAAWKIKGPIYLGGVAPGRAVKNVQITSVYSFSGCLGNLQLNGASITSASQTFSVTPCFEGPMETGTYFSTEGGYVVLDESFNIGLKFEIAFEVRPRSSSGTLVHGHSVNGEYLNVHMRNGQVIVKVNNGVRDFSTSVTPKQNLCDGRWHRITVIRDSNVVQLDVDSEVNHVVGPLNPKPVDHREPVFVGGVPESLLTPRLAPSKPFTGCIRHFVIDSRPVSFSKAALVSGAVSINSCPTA

mouse His-laminin-α4 [2] = molecular target: T2, mouse His-laminin-α4; assay: ELISA hMCAM-Fc capture blocking assay; antibody pre-incubated with mouse LAMA4-His; blocked partner: captured hMCAM-Fc
[3] = molecular target: T3, human LAMA4 G domain (LG1-5) displayed on 293 cells (human, UniProt Q16363 830-1821); assay: LAMA4 pDisplay flow cytometric blocking assay on LAMA4-displaying 293 cells; blocked ligand: 650-conjugated mouse MCAM-Fc
T3 construct: the vector's tags and membrane anchor are not written here; also called LAMA4-displaying human 293 cells; full length
T3 sequence: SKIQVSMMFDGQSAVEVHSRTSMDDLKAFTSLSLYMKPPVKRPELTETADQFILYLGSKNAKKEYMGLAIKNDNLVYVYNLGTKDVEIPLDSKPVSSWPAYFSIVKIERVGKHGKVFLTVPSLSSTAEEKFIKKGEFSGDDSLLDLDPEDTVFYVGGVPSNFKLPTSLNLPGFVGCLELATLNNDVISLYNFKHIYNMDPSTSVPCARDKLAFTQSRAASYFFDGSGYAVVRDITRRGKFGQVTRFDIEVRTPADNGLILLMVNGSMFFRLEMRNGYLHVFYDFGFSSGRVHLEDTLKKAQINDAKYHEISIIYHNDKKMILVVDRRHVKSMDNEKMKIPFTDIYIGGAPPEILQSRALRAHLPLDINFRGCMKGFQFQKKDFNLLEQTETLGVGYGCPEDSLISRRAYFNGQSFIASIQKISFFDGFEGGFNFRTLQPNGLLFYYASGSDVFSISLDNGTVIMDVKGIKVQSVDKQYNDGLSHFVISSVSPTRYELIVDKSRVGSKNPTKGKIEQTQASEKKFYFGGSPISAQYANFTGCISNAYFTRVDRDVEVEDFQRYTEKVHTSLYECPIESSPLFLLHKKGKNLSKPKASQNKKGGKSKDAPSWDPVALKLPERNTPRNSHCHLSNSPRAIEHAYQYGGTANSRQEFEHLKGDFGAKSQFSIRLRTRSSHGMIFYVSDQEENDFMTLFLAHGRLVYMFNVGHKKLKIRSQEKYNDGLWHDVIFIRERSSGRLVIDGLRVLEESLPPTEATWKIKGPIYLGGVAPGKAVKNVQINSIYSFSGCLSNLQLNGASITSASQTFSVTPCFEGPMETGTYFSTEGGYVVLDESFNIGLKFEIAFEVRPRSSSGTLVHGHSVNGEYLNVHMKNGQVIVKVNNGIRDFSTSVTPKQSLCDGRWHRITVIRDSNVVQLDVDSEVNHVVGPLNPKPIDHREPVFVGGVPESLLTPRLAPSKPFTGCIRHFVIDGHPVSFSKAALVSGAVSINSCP

recombinant laminin 411 [4] = molecular target: T4, recombinant laminin 411 (human, UniProt P07942 22-1786; P11047 34-1609, limits assumed); assay: hMCAM.CHO flow cytometric blocking assay; antibody pre-incubated with laminin 411; blocked partner: human MCAM on CHO cells
T4 construct: also called LAMA4 in complex with its gamma1 and beta1 chains
T4 sequence (P07942 22-1786 limits assumed, chain 2 of 2): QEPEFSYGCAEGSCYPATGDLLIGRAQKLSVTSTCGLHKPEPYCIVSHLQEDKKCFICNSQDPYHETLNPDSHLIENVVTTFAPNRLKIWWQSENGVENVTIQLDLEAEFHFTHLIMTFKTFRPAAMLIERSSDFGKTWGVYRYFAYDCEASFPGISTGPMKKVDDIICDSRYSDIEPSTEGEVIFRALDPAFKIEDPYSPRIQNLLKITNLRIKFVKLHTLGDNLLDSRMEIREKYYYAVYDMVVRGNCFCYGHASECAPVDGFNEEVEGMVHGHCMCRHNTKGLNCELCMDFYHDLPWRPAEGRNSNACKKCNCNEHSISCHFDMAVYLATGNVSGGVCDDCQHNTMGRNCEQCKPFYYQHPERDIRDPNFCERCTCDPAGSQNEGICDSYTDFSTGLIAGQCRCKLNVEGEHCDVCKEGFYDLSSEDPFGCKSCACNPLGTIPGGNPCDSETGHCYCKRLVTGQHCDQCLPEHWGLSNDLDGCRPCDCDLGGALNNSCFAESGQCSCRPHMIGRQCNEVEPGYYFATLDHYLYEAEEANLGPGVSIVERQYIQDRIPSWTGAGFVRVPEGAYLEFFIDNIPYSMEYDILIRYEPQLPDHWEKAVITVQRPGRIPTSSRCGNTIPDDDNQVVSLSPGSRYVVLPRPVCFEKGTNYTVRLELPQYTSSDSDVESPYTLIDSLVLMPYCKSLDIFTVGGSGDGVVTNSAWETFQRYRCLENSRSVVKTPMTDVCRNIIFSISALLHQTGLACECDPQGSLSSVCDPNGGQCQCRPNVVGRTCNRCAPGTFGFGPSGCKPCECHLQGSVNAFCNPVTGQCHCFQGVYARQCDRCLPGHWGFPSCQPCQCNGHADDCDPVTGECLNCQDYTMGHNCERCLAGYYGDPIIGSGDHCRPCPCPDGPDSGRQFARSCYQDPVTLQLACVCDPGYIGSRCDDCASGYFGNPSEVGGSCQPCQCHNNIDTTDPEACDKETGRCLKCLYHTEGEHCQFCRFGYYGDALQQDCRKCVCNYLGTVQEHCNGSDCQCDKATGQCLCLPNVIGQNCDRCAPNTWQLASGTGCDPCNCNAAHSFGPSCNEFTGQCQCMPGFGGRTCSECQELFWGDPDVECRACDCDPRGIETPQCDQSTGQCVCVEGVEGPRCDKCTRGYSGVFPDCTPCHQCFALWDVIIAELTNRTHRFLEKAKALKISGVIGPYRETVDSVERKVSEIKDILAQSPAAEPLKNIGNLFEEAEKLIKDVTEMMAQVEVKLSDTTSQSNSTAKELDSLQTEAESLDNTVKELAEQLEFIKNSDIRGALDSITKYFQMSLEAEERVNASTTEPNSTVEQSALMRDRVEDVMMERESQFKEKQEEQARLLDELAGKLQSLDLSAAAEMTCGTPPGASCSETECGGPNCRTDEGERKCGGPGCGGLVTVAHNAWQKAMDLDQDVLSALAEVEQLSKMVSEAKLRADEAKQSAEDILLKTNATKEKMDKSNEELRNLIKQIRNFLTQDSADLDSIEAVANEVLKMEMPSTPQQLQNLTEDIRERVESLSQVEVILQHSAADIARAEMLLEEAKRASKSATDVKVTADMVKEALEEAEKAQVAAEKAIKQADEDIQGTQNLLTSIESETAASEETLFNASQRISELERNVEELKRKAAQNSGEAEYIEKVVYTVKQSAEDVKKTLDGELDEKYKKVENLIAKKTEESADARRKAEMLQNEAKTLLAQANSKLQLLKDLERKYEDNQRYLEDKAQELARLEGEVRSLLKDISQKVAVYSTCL
T4 sequence (P11047 34-1609 limits assumed, chain 3 of 2): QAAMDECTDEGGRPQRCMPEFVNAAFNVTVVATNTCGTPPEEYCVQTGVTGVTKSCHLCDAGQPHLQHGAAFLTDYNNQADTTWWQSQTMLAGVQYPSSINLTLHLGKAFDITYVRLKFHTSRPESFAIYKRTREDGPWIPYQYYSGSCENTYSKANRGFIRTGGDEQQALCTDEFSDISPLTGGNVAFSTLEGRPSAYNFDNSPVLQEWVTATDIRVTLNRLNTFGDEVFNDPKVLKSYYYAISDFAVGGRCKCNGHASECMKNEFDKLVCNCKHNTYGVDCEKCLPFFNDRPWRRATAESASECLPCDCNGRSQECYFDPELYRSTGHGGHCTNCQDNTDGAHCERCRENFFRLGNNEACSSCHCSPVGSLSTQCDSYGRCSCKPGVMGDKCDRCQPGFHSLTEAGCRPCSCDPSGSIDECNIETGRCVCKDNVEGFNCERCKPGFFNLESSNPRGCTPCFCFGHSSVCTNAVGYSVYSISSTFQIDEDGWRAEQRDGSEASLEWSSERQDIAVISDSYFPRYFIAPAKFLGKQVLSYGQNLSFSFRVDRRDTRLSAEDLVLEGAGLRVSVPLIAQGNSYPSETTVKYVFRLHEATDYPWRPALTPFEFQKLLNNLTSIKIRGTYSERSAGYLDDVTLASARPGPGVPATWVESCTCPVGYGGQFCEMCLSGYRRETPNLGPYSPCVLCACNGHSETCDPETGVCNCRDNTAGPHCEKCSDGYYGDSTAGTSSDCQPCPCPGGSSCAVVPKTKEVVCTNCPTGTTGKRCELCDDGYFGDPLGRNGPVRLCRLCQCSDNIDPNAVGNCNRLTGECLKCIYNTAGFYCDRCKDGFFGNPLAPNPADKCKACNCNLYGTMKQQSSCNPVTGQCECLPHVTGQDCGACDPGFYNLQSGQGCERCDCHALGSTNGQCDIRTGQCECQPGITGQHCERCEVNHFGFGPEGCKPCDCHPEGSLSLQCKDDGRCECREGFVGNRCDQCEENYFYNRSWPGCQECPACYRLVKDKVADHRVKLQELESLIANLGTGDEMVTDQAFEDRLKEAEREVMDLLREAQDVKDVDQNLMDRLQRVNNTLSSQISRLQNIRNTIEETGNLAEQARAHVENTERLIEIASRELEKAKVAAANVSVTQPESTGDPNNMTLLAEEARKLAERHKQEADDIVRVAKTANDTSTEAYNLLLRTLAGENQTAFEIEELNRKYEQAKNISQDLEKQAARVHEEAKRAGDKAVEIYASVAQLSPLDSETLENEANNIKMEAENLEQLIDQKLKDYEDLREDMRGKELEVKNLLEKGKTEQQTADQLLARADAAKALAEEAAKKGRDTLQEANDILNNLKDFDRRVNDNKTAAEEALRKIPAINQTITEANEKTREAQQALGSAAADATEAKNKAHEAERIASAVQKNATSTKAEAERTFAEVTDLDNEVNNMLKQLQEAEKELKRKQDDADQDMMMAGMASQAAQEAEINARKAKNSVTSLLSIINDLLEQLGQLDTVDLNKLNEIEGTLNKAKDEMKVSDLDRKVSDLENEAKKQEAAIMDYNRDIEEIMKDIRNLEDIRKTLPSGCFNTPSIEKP
Description: The monoclonal antibodies against LAMA4 were tested for their ability to block the binding of LAMA4 to its ligand MCAM. IgG control antibody, 1C1, 5Al2, 5B5, 19C12, and 12D3 were pre-incubated with recombinant LAMA4 protein, LAMA4-positive healthy mouse brain tissue, or LAMA4-displaying human 293 cells. […] For the mouse brain tissue blocking assay, antibodies were used at concentrations of 2.5 ug/ml or 0.04 ug/ml.
(§1) Following two washes with FACS buffer (1% FBS in PBS), cells were resuspended with 650-conjugated anti-pan-laminin antibody (1:1000; Novus Biologicals) and incubated for 20 min at 4° C., and washed again. Cells were analyzed for pan-laminin reactivity by flow cytometry using standard procedures.

[5] = molecular target: T5, human LAMA4 LG4-5 modules displayed on 293 cells (human, UniProt Q16363 1453-1821); assay: flow cytometry on 293 cells displaying LAMA4 G-domain variants, anti-human-650 secondary antibody; MFI
T5 construct: pDisplay construct on 293 cells; vector tags and anchor not written here
T5 sequence: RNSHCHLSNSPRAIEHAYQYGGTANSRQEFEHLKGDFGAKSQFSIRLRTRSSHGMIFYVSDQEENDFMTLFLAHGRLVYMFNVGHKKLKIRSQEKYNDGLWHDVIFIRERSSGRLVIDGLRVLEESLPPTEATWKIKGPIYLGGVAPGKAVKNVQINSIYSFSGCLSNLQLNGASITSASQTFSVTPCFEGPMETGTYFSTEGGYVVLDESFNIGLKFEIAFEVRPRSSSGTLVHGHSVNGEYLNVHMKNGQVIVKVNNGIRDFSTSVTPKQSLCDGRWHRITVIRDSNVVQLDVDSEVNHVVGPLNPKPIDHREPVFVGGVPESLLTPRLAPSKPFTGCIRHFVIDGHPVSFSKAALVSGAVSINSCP
Description: The 19C12 variants chimeric 19C12, H1+chiL, and H2+chiL, and buffer alone were tested for their ability to block the binding of LAMA4 to its ligand MCAM (as shown in FIG. 11) and to bind LAMA4-displaying cells (full length, LG1-3, LG4-5, or untransfected control) (as shown in FIG. 12). […] To test LAMA4 binding capacity, serially diluted antibodies were pre-incubated with LAMA4-displaying human 293 cells, followed by anti-human-650 secondary antibody incubation. Fluorescent signal was assessed via flow cytometric analyses and plotted as mean fluorescence intensity (MFI).

recombinant laminin 411 [6] = molecular target: T4, recombinant laminin 411; assay: flow cytometric blocking assay; antibody pre-incubated with 650-labeled laminin 411; blocked partner: human MCAM on CHO cells; MFI
Description: The 19C12 variants chimeric 19C12, H2L3, H2L4, H2L6, H3L6, and isotype control were tested for their ability to block the binding of LAMA4 to its ligand MCAM (FIG. 15) and to bind LAMA4-displaying cells (FIG. 16). To test LAMA4 binding capacity, serially diluted antibodies were pre-incubated with LAMA4-displaying human 293 cells, followed by anti-human-650 secondary antibody incubation. […] Fluorescent signal was assessed via flow cytometric analyses and plotted as mean fluorescence intensity (MFI). All 19C12 variants retained their MCAM blocking and LAMA4 binding activity when compared with chimeric 19C12.
as §1

- Kd (human His-laminin-α4): 10.9 nM
- koff (human His-laminin-α4): 0.00791 s⁻¹
- kon (human His-laminin-α4): 723000 M⁻¹ s⁻¹
- Kd (mouse His-laminin-α4 [1]): 10.3 nM
- koff (mouse His-laminin-α4 [1]): 0.00815 s⁻¹
- kon (mouse His-laminin-α4 [1]): 795000 M⁻¹ s⁻¹
- IC50 (read off the curve) (mouse His-laminin-α4 [2]): ~0.2 µg/mL
- IC50 (read off the curve) [3]: ~0.1 µg/mL
- IC50 (read off the curve) (recombinant laminin 411 [4]): ~0.06 µg/mL
B1: mouse monoclonal antibody 5A12 (antibody, V domains shown)
VH: QVQLQQPGAELVKPGASVKLSCKASGYTFTSYWMHWVKQRPGRGLEWIGRIDPNSGGTKHNEKFKSKATLTVDKPSSTAYMQLSSLTSEDSAVYYCAGSPSYYDYALHYAMDYWGQGTSVTVSS
VL: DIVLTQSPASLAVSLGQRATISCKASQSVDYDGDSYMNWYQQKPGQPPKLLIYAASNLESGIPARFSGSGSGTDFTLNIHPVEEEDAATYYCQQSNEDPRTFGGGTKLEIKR
notes: version 1 is written here; also called 5Al2

- binding result [5]: no binding (tested: 5 ug/ml)
- IC50 (read off the curve) (recombinant laminin 411 [6]): ~0.7 µg/mL
B2: chimeric 19C12 antibody (antibody, V domains shown)
VH: QVQLQQSGAELVKPGASVKISCKASGYAFSTYWMNWVKQRPGEGLEWIGQIYPGDGDTNYNGKFKGKATLTADKSSSTAYMQLSSLTSEDSAVYFCARSDGYYDYWGQGTTLTVSS
VL: NIVLTQSPASLAVSLGQRATISCRASESVDSYGTSFMHWYQQKPGQPPKLLICLASSLESGVPARFSGSGSRTDFTLTIDPVEADDAATYYCQQNNEDPPTFGAGTKLELKR
notes: Mouse 19C12 variable regions with human constant regions (captured by anti-human Fc, detected by anti-human secondary); also called chi19C12; 19C12 chi
